# Test: yeast display, Sf9 membrane polyspecificity reagent, FACS + sequencing; frameworks hold sequencing errors
# Method in brief: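 Sorting gates, low and high (top ~1%), were placed on anti-HA fluorescence to track expression and on streptavidin fluorescence to track reagent binding. A clone's polyreactivity label is taken from the gate it came out of. The reagent was 10% biotinylated, detergent-solubilized Sf9 membrane, applied for 1 hour at 4 °C to galactose-induced yeast display cells.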
row,Sequence,polyreactivity (PSR sort gate)
1,QVQLVESGGGLVQAGGSLRLSCAASGRIFYINAMGWYRQAPGKERELVAAITEGGVSTYYADSVKGRFTISRDNAMNTVYLQMNSLKPEDTAVYYCNTTGGTDGIVIYEYWGQGTQVTVSS,low polyreactivity
2,QVQLVESGGGLVQAGGSHRLSCAASGFTFVNNALGWYRQPPGKEREFVAPISSDGGSTYYADSVKGRFTMSRDNAKNTVYLQMNSLKPEDTAVYYCAKVYPYRTYDTSYYHYHYDSWGQGTQVTVSS,low polyreactivity
3,QVQHVESVGGLDQAGGSLRLSSAASGRTFYLYAMGWYRQATGKEREFVADINSSGGSTYYADSVKGRFTISRDNAKNTVYLQMNSLKPEDTAVYYCAAYPIPRGRDYWGQGTQVTVSS,low polyreactivity
4,QVQLVESGGGLDQAGGSLRLSCAASGFILDTYGMGWYRQATGTERELVAAISQSDVSTYYADSVKGRFTISRDNAKNTVYLQMNSLKPEDTAVYYCAAAHLSYRRRYESWGQGTQVTVSS,low polyreactivity
5,QVQLVESGGGLVQAGGSLRLSCAASGFIFGGYAMGWYRQAPGKERELVAAISRSGGSTYYADSVKGRFTISRDNEKNTVYLQMNSVKPEDTAVYYCNAVPRRQGFNYWGQCTQVTVSS,high polyreactivity
6,QVQLVESGGGLVQAGGSLRLSCAASGLTLRNYAMGWYRQAPGKERELVAAITTGGGRTYYADSVKGRFTISRDNAKNTVYFQMNSVKPEDTAVYYCAADAPREYVDHYKYDDDYWGQGTQVTVSS,low polyreactivity
7,QVQLVESGGGLVQAGGSLRLSCAASGRTFYLYAMGWYRQAPGKERELVAAITFNGGSTYYADSVKGRFTISRDNAKNTVYLQMNSLKPEDTAVYYCAARLSKRSGYYYWGQGTQVTVSS,high polyreactivity
8,QVQLVESGGGLVQAGGTLRLSCAASGSIQYRYAMGWYRQAHGKERELVAAISARGGNTYYADSVKGRFTISRDNAKNTVYVQMNSLKPEDTAVYYCAATYRGYRLHVAYDYWGQGTQVTVSS,high polyreactivity
9,QVQLVESGGGLVQAGGSLRLSCAASGRIITKYNTMGCYRPATGIEMELVAAINRSAGSTYYADSVKGRFTISRDNAKNTVYLQMNSLKTEDTAVYYCAAKRGASYGSSLGAPRRHYDEYWGQGTQVTVSS,low polyreactivity
10,QVQLVESGGGLVQAGGSLRLSCAASGRTFQFYAMGWYRPAPGKERELVAAITYSGDSTYYADSVKGRFTISRDNAKNTVYLQMNSLKPEDTAVYYCAAGVWFYWYEYDYWGQGTQVTVSS,high polyreactivity
11,QVQLVESGGGLVQAGGSLRLSCAASGSIFFYYAMGWYRQAPGKERELVAAISGGGRTNYADSVKGRFTISRDNAKNTVYLQMNSLKPEDTAVYYCAADPVYWYSPMDYWGQGTQVTVSS,low polyreactivity
12,QVQLVESGGGLVQAGGSLRLSCAASGRTFVWNAMGWYRQAPGKERELVAAIDWSGGSTYYADSVKGRFTISRDNAKNTVYLQMNSLKPEDTAGYYCAKEYWYRALWYNYWGQGTQVTVSS,high polyreactivity
13,QVQLVESGGGLVQAGGSLRLSCAASGNIFVYYAMGWYRQAPGKERELVAAISFRGGTTYYADSVKGRFTISRDNAKNTVYLQMNSLKPEDTAVYYCAKDIFQIGYRRYDSWGQGTQVTVSS,low polyreactivity
14,QVQLVESGGGLVQAGCSLRLSCAASGRIFTTYAMGWYRQAPGKERELVASIDSRGDSTYADSVKGRFTISRDNAKNTVYLQMNSLKPEDTAVYYCAADSWYTWFDSWGQGTQVTVSS,low polyreactivity
15,QVQLEESGGGLVQAGGTLRLSCAASGIIFDGNAMVWYRQAPGKERELVASITSDSSTNYADSVKGRFTISRDNAKNTVYLQMNSLKPEDTAVYYCAADHWIAPRRDYWGQGSQVTVSS,low polyreactivity
16,QVQLVESGGGLVQAGGSLRLSCAASGLTFWKYTMGWYRQAPGKERELVAAISISGTNTYYADSVKGRFTISRDNAKNTVYLQMNSLKPEDTAVYYCAAVRGYPPTNYYYWGQGTQVTVSS,high polyreactivity
17,QVQLVESGGGLVQAGGSLRLSCAASGRIIWPYAIGWYRQAPGKERELFATITSGGRTNYADSVKGRFTISRDNAKNTVYLQMNSLKPEDTAVYYCIADHWLYYGAGYDYWGQGTQVTVSS,low polyreactivity
18,QVQLVESGGGLVQAGGSLRLSCAASGFTFRYYAMGWYRQAPGKERELVASINWSGGSTYYADSVKGRFTISRDNAKNTVYLQMNSLKPEDTAVYYCAADSIWGHYFARFDYWGQGTQVTVSS,high polyreactivity
19,QVQLVESGGGLVQAGGSLRLSCAASGFIFGTYAMGWYRQAPGKERELVAAISVGGGSTYYADSVKGRFTISRDTAKNTVYLQMNSLKPEDTAVYYCAAVQLYQKHQITYVAHEYWGQGTQVTVSS,low polyreactivity
20,QVQLVESGGGLVQAGGSLRLSCAAYGFIYRYYAMGWNRQAPGKERELVPGISVSGGGTYYADSVKGRFTISRDNAKNTVNLQMNSLKPEDTAVYYCAAERTFLYWAYDYWGQGTQVNVSS,high polyreactivity
21,QVQLVESGGGLVQAGGSLRLSCAASGFTFKGNTMGWYRQAPGKERELVATITRGGTTYYADSVKGRFTISRDNAKNTVYLQMNSLKPEDTSVYYCAAVVYRPYRWQYDYWGQGTQVTVSS,high polyreactivity
22,QVQLVESGGGLVQAGGSLRLSCAASGNTFGPYAMGWYRQAPGKERELVAAITWTDTSTHYADSVKGRFTISRDNAKNTVYLQMNSLKPEDTAVYYCARVYYVNTYRYRAGYYYWGQRTQVTVSS,high polyreactivity

row,Sequence,polyreactivity (PSR sort gate)
1,QVQLVESGGGLVQAGGSLRLSCAASGSIFVPNAMGWYSQAPGKERELVASISYSGTSTYYADSVKGRFTISRDNAKNTVYLQMNSLKPEDTAVYYCAVTWYPWYYGYWGQGTQVTVSS,high polyreactivity
2,QVQLVESGGGLVQAGGSLRLSCAASGSTFRGNTMGWYRQAPGKERELVAAISRRGGGTYYADSVKGRFTISRDNAKNTVYLQMNSLKPEDTAVYYCNKRARHTGDFVWGHGYWGQGTQVTVSS,low polyreactivity
3,QVQLVESGGGLVQAGGSLRLSCAASGGIFDFYAMGWYRPAPGKERELVAAITRSGSSTFYADSVKGRFTLSRDNAKNTVDLQMNSLKPEDTAIYYCAADYSHLPIAWYYYWGQGTQVTVSS,low polyreactivity
4,QVQLVESGGGLVQAGGSLRLSCAASGRTFSRYAMGWYRQAPGKERELVAAISRSGGITYYADSVKGRFTISRDNAKNTVYLQMNSLKPEDTAVYYCAAYVRGWGGDDYWGQGTQVTVSS,high polyreactivity
5,QVQLVESGGGLVQAGGSLRLSCAASGSIFAYNAMGWYRQAPGKEREFVAVITRSDDSTYADSVKGRFTISRDNAKNTVFLQMNRLKPEDTAVYDCAAQPFVIDGGYRGDYWGQGTQVTVSS,low polyreactivity
6,QVQLVESGGGLVQAGGSLRISCAASGSIFRINAMGWYRQAHGKEMELVAAITASGDRTYYADSVKGRFTISRDNAKNTVYLQMNSLKPEDTAVFYCAVDSYYPASSLVAFPYAPRYDYWGQGTQVTVSS,low polyreactivity
7,QVQLVESGGGLVQAGGSLRLSCAASGLTFEYYTMGWYRQAPGKERELVAAITSSGGSTYYADSVKGRFTISRDNAKNTVYLQMNSLKPEDTAVYYCAARWRHYFVWKSYDYWGQGTQVTVSS,low polyreactivity
8,QVQLVESGGGLVQAGGSLRLSCAASGFIFRVYAMGWYRQAPGKERELVAAITRNGGSTYYADSVKGRFTISRDNAKNTVYLQMNSLKPEDTAVYYCATVYSFGQNRDYWGQGTQVTVSS,high polyreactivity
9,QVQLVESGGGLVQAGGSLGLSCAASGRTFANNAMGWYRQAPGKERELVARISNSGSTNYADSVKGRFTISRDNAKNTVYLQMNSLKPEDTAVYDCAARIVRLYSRYDYWGQGTQETVSS,low polyreactivity
10,QVQLVESGGGLVQAGGSLRLSCAASGSIFTSNVMAWYRQAPGKERELVAAITITGTTTYADSVKGRFTISRDNAKNTVYLQMNSLIPEDTAVYYCAKDPVELSPADWRADYDYWGQGTQVTVSS,low polyreactivity
11,QVQLVESGGGLVQAGGSLRLSCAASGSTFVSYAMGWSRQAPGKERELVAAISISDSSTYYADSVKGRFTISRDNAKNTVFLQMNSLKPEDTAVYYCNRYDYWGQGTQVTVSS,low polyreactivity
12,QVQLVESGGGLVQAGGSLRLSCAASGRIITLYAMGWYRQAPGKERELVAGISRSGGSTYYADSVKGRFTISRDNAKNTVYLQMNSLKPEDTAVSYCNAVPIYYAWRRNKPFDYWGQGTQVTVSS,low polyreactivity
13,QVQLEESGGGLVQAGGSLRLSCAASGFTFRRYAMGWYRQAPGKERELVAAITRSGSSTYYADSVKGRFTISRDNAKNTVYLQMNSLKPEDTAVYYCARYHLRPTDGFDYWGQGTQVTVSS,high polyreactivity
14,QVQLVESGGGLVQAGGSLRLSCAATGSIVYSNTMGWYRQSPGKERELVAAISTSDTSTYYADSVKGRFTISRDNGKNTVYLQMNSLKPQDTAVYYCNAVCSIVLYGYWGQGTQVTVSS,low polyreactivity
15,QVQLVESGGGLVQAGGSLRLSCAASGSTFYRYAMGWYRQAPGKERELVAGISSSGGSTYYADSVKGRFTISRDNAKNTVYLQMNSLKPEDTAVYYCAAVGQWGYGYWGQGTQVTVSS,high polyreactivity
16,QVQLVESGGGLVQAGGSLRLSCAASGSTLSLYAMGWYRQAPGKERELVAAITSSGGTYYADSVKGRFTISRDNAKNTVYLQMNGLKPEDTAVYYCAAQSYSRMDYWGQGTQVTVSS,high polyreactivity
17,QVQLVESGAGLVKAGGSLRLSCAASGRSFRGNVMGWYRQAPGKEREFVAAISSSGGSTYYADSVKGRFTISRDNAKNTVYLQMNSLKPEDTAVYYCAAGGWPYSGGWFFQPNYDYWGQGTQVTVSS,low polyreactivity
18,QVQLVESGGGLVQAGGSLRLSCAASGFIYTRNAMGWDRQAPGQERELVAAITSSGGSTYYADTVKGRFTISRDNAKNTVYLQMNSLKREDTAVYYCARGKSVGFNYWGQGTQVTVSS,high polyreactivity
19,QVQLVESGGGLVQAGGSLRLSCAASGRIFYGYAMGWYRQAPGKERDLVAGISYRGARTYYADSVKGRFTISRDNAKNTVYLQMTSLKPEDTAVYYCNAVPYYPFAFGALDYWGQGTQVTVSS,high polyreactivity
20,QVQLVESGGGLVQAGGSLRLSSAASGSIFYNNAMGWYRQAPGKERELVAAISGSGDSTYYADSVKGRFTISRDNAKNTVYLQMNSLIPDDTAVYYCNATPYVLWWSDMDYWGQGTQVTVSS,high polyreactivity
21,QVQLVESWGGLVQAGGSLRLSCAASGRIFANYGMGWYRQAPRKERELVAAIDRSGGTTFYADSVKGRFTISRDNAKNTVYLQMNSLKPEDTAVYYCAAALSYWYYAYYYWGQGTQVTVSS,low polyreactivity

# Source: the nanobody polyreactivity screen of Harvey et al. (2022)
